This is an account of results in patent publication US20100310509A1 (published 2010).

Test [1] addresses T1, gp130 bound OSM-M1 (gp130:OSM-M1) (human, UniProt P40189 23-619).
T1 construct: extracellular domain; Non-covalent complex formed on the plate: gp130 coated, then 200 nM OSM-M1; also called OSM-M1 with gp130; not shown: N-terminal FLAG tag
T1 sequence 1: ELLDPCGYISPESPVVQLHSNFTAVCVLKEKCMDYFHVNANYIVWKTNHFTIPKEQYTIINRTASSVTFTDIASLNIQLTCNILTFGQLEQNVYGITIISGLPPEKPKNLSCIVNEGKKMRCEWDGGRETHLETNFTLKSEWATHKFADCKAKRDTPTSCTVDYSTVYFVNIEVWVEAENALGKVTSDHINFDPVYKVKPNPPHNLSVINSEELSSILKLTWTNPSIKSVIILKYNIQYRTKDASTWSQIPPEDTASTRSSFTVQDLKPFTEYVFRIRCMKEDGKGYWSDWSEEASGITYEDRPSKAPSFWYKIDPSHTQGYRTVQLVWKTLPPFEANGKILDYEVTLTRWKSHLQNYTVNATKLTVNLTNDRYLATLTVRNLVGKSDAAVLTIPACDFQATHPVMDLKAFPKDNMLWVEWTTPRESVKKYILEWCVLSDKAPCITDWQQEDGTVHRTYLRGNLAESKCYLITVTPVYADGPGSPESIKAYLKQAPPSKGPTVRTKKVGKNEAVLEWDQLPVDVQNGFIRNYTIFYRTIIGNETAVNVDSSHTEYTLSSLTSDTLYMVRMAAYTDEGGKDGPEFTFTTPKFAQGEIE
T1 sequence 2: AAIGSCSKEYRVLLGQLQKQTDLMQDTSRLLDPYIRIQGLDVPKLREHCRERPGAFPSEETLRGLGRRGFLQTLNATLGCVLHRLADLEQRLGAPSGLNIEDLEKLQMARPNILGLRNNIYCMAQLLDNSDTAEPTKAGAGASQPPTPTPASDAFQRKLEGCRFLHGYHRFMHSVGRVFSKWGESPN
The experiment in a line: ELISA, apparent KD (KD,App), gp130 coated, saturating cytokine, soluble OSMR titrated (with gp130). On the procedure:
(§1) FIG. 13 graphically depicts an ELISA analysis of soluble OSMR and soluble LIFR binding with LIF, OSM-WT, OSM-M1 and OSM-M2 or gp130 bound LIF (gp130:LIF), OSM-WT (gp130:OSM-WT), OSM-M1 (gp130:OSM-M1) and OSM-M2 (gp130:OSM-M2). Cytokines (LIF, OSM-WT, OSM-M1 or OSM-M2) immobilized on an ELISA plate in the absence (A,C) or presence (B,D) of gp130 were treated with various concentrations of soluble OSMR (A,B) or soluble LIFR (C,D). Equilibrium KD values were estimated using a non-linear curve fitting to the binding data using GraphPad Prism (Graph Pad Software. LaJolla, Calif.). In addition, see Table 3.
(§2) Enzyme-linked immunosorbent assay (ELISA): ELISA was used to evaluate the equilibrium binding strength of the interaction between the cytokines and their receptors. This technique has traditionally been used as a sensitive method to quantify the binding affinities between two interacting proteins. However, unlike in SPR, ELISA involves immobilization of the proteins on a flat plastic surface driven by hydrophobic and ionic interactions. This might cause some distortion in the 3 dimensional structure of immobilized protein which leads to inaccuracies in the estimation of dissociation constants. It is thus important to bear in mind that the values estimated using this technique are to be used only for comparison between species but not as true equilibrium binding constants. The results obtained using this technique will thus be presented as apparent equilibrium dissociation constants (K_{D,App}). For direct interaction studies, cytokines (LIF, OSM-WT, OSM-M1 or OSM-M2) were immobilized on the 96 well ELISA plate by incubating the wells with 200 μl of 5 nM cytokine solution in PBS, pH 7.4 overnight at 4° C. The wells were then blocked with blocking buffer (4% BSA in PBS) for 1 hour at room temperature. […]

Test [2] addresses T2, gp130 bound OSM-M2 (gp130:OSM-M2) (human, UniProt P40189 23-619).
T2 construct: extracellular domain; Non-covalent complex formed on the plate: gp130 coated, then 200 nM OSM-M2; also called OSM-M2 with gp130; not shown: N-terminal FLAG tag
T2 sequence 1: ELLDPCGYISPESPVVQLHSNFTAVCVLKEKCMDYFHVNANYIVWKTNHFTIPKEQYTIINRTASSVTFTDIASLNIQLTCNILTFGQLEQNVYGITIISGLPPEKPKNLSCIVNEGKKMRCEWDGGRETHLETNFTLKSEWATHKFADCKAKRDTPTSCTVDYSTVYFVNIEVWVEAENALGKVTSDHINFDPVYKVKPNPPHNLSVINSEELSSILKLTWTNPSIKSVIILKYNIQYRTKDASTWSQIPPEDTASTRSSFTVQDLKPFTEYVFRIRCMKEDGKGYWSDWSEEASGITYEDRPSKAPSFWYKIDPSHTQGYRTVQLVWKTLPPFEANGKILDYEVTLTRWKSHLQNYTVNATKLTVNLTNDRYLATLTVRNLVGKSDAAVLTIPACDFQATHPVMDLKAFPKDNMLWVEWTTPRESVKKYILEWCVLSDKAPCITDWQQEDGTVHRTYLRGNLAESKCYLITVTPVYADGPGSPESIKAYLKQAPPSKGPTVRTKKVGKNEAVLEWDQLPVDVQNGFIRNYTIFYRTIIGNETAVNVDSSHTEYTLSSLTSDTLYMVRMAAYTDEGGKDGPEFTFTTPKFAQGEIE
T2 sequence 2: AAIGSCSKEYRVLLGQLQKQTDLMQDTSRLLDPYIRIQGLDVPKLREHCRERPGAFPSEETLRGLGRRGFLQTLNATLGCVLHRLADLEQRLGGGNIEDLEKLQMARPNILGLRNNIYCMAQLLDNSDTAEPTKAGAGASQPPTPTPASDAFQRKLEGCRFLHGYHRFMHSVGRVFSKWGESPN
The description is as above. On the procedure: as §1, §2

Test [3] addresses T3, gp130 bound OSM-WT (gp130:OSM-WT) (human, UniProt P40189 23-619).
T3 construct: extracellular domain; Non-covalent complex formed on the plate: gp130 coated, then 200 nM OSM-WT; also called OSM-WT with gp130; not shown: N-terminal FLAG tag
T3 sequence 1: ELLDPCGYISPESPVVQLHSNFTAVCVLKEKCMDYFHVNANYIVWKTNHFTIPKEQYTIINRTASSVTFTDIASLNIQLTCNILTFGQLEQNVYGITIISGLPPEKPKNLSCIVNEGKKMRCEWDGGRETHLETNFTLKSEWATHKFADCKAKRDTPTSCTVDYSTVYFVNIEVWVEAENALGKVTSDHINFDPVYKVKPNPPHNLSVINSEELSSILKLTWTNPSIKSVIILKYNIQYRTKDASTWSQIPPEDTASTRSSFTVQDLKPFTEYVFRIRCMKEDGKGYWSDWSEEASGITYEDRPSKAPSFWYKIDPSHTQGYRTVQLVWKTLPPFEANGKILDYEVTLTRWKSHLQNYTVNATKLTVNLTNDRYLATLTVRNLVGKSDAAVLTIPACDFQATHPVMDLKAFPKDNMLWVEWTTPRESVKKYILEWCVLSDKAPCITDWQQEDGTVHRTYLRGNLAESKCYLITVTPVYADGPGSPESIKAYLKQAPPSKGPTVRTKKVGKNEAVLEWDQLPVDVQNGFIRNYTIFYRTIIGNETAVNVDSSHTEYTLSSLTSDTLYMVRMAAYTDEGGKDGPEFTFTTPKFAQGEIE
T3 sequence 2: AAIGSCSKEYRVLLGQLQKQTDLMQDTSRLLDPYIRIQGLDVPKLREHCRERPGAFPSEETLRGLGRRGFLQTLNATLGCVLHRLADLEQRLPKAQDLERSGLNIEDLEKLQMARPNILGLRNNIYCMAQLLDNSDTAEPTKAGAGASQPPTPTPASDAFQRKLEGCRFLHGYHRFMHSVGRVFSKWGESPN
The description is as above. As to the method:
as §1, §2

The target in test [4] is T4, gp130 bound LIF (gp130:LIF) (human, UniProt P40189 23-619; P15018 23-202).
T4 construct: Non-covalent complex formed on the plate: gp130 coated, then saturating cytokine; also called LIF with gp130
T4 sequence (P15018 23-202 limits assumed, one chain of several): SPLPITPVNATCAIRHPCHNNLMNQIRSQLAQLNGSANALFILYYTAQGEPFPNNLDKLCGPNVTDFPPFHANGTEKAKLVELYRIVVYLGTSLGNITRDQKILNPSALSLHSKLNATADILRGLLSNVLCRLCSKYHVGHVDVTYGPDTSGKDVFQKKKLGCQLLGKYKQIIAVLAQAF
The test is described as follows: ELISA, gp130 coated and loaded with LIF, soluble OSMR titrated, anti-OSMR detection, O.D at 450 nm. On the technique in general: ELISA stands for enzyme-linked immunosorbent assay.

B1: soluble human OSMR (Oncostatin M receptor) (receptor, UniProt Q99650 28-740, looked up)
chain: ERLPLTPVSLKVSTNSTRQSLHLQWTVHNLPYHQELKMVFQIQISRIETSNVIWVGNYSTTVKWNQVLHWSWESELPLECATHFVRIKSLVDDAKFPEPNFWSNWSSWEEVSVQDSTGQDILFVFPKDKLVEEGTNVTICYVSRNIQNNVSCYLEGKQIHGEQLDPHVTAFNLNSVPFIRNKGTNIYCEASQGNVSEGMKGIVLFVSKVLEEPKDFSCETEDFKTLHCTWDPGTDTALGWSKQPSQSYTLFESFSGEKKLCTHKNWCNWQITQDSQETYNFTLIAENYLRKRSVNILFNLTHRVYLMNPFSVNFENVNATNAIMTWKVHSIRNNFTYLCQIELHGEGKMMQYNVSIKVNGEYFLSELEPATEYMARVRCADASHFWKWSEWSGQNFTTLEAAPSEAPDVWRIVSLEPGNHTVTLFWKPLSKLHANGKILFYNVVVENLDKPSSSELHSIPAPANSTKLILDRCSYQICVIANNSVGASPASVIVISADPENKEVEEERIAGTEGGFSLSWKPQPGDVIGYVVDWCDHTQDVLGDFQWKNVGPNTTSTVISTDAFRPGVRYDFRIYGLSTKRIACLLEKKTGYSQELAPSDNPHVLVDTLTSHSFTLSWKDYSTESQPGFIQGYHVYLKSKARQCHPRFEKAVLSDGSECCKYKIDNPEEKALIVDNLKPESFYEFFITPFTSAGEGPSATFTKVTTPDEHSSM
notes: extracellular domain; Bought; also called soluble OSMR
Turning to B1, the values for the Kd in test [1], in test [2] and in test [3] were 3.71 nM, 2.19 nM and 10.9 nM, respectively. Also, in test [4], the binding result is listed as “no binding (tested: 75 nM)”.
